Test results published in patent US20260109758A1 (BIOSION, published 2026).

Experiments:
[1] = biological target: human IL4Rα on HEK293T-IL4R/STAT6/STAT6-Luc LB2 cells (human, UniProt P24394 26-825); assay: cell-based or functional assay
[2] = biological target: T1, recombinant human TSLP-his (human, UniProt Q969D9 29-159, biotin-labeled in the ELISAs); assay: SPR Biacore; TSLP-his amine-coupled to CM5 chip, antibody as analyte; 1:1 Langmuir fit
T1 construct: In-house made; not shown: His tag at the C-terminus
Method: Un-reacted moieties on the biosensor surface were blocked with ethanolamine. Then, serially diluted purified bispecific antibodies and the controls (2-fold serial dilution in HBS-EP⁺ buffer starting at 100 nM) were respectively flowed onto the chip at a flow rate of 30 μL/min. The antigen-antibody association kinetics was followed for 4 minutes and the dissociation kinetics was followed for 13 minutes.

[3] = biological target: T2, human IL4Rα expressed on 293F-IL4Rα cell surface (human, UniProt P24394 26-825); assay: cell-based blocking FACS on 293F-IL4Rα cells; blocked ligand biotin human IL4
T2 construct: whole, on cells; also called human IL4Rα-expressing cells; cell surface IL4R
Method: Then, 1×10⁵ cells per well were incubated in 96 well-plates in 100 μL of serially diluted bispecific antibodies, the positive controls or negative control (starting at 100 nM with a 5-fold serial dilution) in FACS buffer for 40 minutes on ice. […] The plates were washed twice with FACS buffer, and then added and incubated for 40 minutes at 4° C. in dark with 100 μL/well R-Phycoerythrin Streptavidin (1:500 dilution in FACS buffer, Jackson Immunoresearch, Cat #016-110-084). Cells were washed twice and resuspended in FACS buffer. Fluorescence was measured using a Becton Dickinson FACS Canto II-HTS equipment. Data was analyzed using Graphpad Prism and IC₅₀ values were reported.

[4] = biological target: T3, recombinant human IL4Rα-his (human, UniProt P24394 26-231, limits assumed, biotin-labeled in the capture ELISA); assay: SPR Biacore T200; antibody captured on anti-human IgG CM5 chip, IL4Rα-his as analyte; 1:1 Langmuir fit
T3 construct: In-house made; not shown: His tag at the C-terminus
Procedure, shortened: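 Antibodies captured on anti-human IgG CM5 chip (bispecifics at 66.67 nM, controls 10 μg/mL), then serially diluted recombinant human IL4Rα-his (C-terminal His tag) in HBS EP flowed at 30 μL/min. Association and dissociation curves fit to 1:1 Langmuir model.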

[5] = biological target: T3, recombinant human IL4Rα-his; assay: competitive ELISA: coated human IL4Rα-his, antibody titrated; blocked ligand biotin human IL4
Method: Briefly, 100 μL human IL4Rα-his proteins (prepared in-house, IL4Rα of SEQ ID NO: 33 with C-terminal His tag) were coated on 96-well micro plates at 2 μg/mL in PBS overnight at 4° C. The next day, plates were washed with wash buffer (PBS+0.05% w/v Tween-20, PBST), and blocked with 5% w/v non-fatty milk in PBST for 2 hours at 37° C. Plates were then washed again using wash buffer. Serially diluted bispecific antibodies or the controls (starting at 100 nM with a 5-fold serial dilution) in 2.5% w/v non-fatty milk in PBST, 100 μL per well, were added to the IL4Rα bound plates, and incubated at 37° C. for 40 minutes. […] Plates were washed again using wash buffer. Thereafter, the plates were added with 100 μL/well of streptavidin conjugated HRP (1:10000 dilution in PBST buffer, Jackson Immunoresearch, Cat #016-030-084) and incubated for 40 minutes at 37° C. Plates were washed again using wash buffer. Finally, TMB was added and the reaction was stopped using 1M H₂SO₄, and the absorbance was read at 450 nm. Data was analyzed using Graphpad Prism and IC₅₀ values were reported.

[6] = biological target: T3, recombinant human IL4Rα-his; assay: dual-binding ELISA: coated human IL4Rα-his, antibody titrated, detection with biotin human TSLP-his and SA-HRP; signal needs both antigens bound

Binder	Inhibition on IL4 induced STAT6 phosphorylation (IC50, nM) [1] [nM]	Inhibition on IL13 induced STAT6 phosphorylation (IC50, nM) [1] [nM]	Kd [2] [pM]	koff [2] [s⁻¹]	kon [2] [M⁻¹ s⁻¹]	IC50 [3] [nM]	Kd [4] [nM]	koff [4] [s⁻¹]	kon [4] [M⁻¹ s⁻¹]	IC50 [5] [nM]	EC50 [6] [nM]
BSI-502-001 (bispecific antibody, human IgG1, kappa, huC2C1A1A1-V15 IgG with an anti-TSLP scFv (hu1C5F12E9-V8, VH-VL) at the C-terminus of the heavy chain) heavy: EVQLVESGGGLVQPGGSLRLSCAASGFTFSTYGMSWVRQAPGKGLVWVATINSNGGSTSYPDSVKGRFTISRDNAKNTLYLQMNSLRAEDTAVYYCARFFRFRNAMDYWGQGTLVTVSSASTKGPSVFPLAPSSKSTSGGTAALGCLVKDYFPEPVTVSWNSGALTSGVHTFPAVLQSSGLYSLSSVVTVPSSSLGTQTYICNVNHKPSNTKVDKKVEPKSCDKTHTCPPCPAPEAQGGPSVFLFPPKPKDTLYITREPEVTCVVVDVSHEDPEVKFNWYVDGVEVHNAKTKPREEQYNSTYRVVSVLTVLHQDWLNGKEYKCQVSNKALPAPIEKTISKAKGQPREPQVYTLPPSRDELTKNQVSLTCLVKGFYPSDIAVEWESNGQPENNYKTTPPVLDSDGSFFLYSKLTVDKSRWQQGNVFSCSVMHEALHNHYTQKSLSLSPGKGGGGSGGGGSQVQLVQSGAEVKKPGASVKVSCKASGYTFTTYWMHWVRQAPGQGLEWMGVIDPSDSDTTYNQKFKGRVTMTRDTSTSTVYMELSSLRSEDTAVYYCTRSLDGYYDYWGQGTLVTVSSGGGGSGGGGSGGGGSGGGGSDIQMTQSPSSLSASVGDRVTITCRPTENIYSYLAWYQQKPGKAPKLLIYFARTLAEGVPSRFSGSGSGTDFTLTISSLQPEDFATYYCQHHYGTPWTFGGGTKVEIK light: DIQMTQSPSSLSASVGDRVTITCRTSENIYSYLAWYQQKPGKAPKFLVYNAKTLAEGVPSRFSGSGSGTDFTLTISSLQPEDFATYYCQHYYGPPTWTFGQGTKVEIKRTVAAPSVFIFPPSDEQLKSGTASVVCLLNNFYPREAKVQWKVDNALQSGNSQESVTEQDSKDSTYSLSSTLTLSKADYEKHKVYACEVTHQGLSSPVTKSFNRGEC	0.00703	0.0289	< 24.6	< 1e-05	407000	0.137	3.09	0.000497	161000	0.248	0.0349
BSI-502-002 (bispecific antibody, human IgG1, kappa, huC2C1A1A1-V15 IgG with an anti-TSLP scFv (VL-VH) at the C-terminus of the heavy chain; AQQ and YTE already stand in the entry) heavy: EVQLVESGGGLVQPGGSLRLSCAASGFTFSTYGMSWVRQAPGKGLVWVATINSNGGSTSYPDSVKGRFTISRDNAKNTLYLQMNSLRAEDTAVYYCARFFRFRNAMDYWGQGTLVTVSSASTKGPSVFPLAPSSKSTSGGTAALGCLVKDYFPEPVTVSWNSGALTSGVHTFPAVLQSSGLYSLSSVVTVPSSSLGTQTYICNVNHKPSNTKVDKKVEPKSCDKTHTCPPCPAPEAQGGPSVFLFPPKPKDTLYITREPEVTCVVVDVSHEDPEVKFNWYVDGVEVHNAKTKPREEQYNSTYRVVSVLTVLHQDWLNGKEYKCQVSNKALPAPIEKTISKAKGQPREPQVYTLPPSRDELTKNQVSLTCLVKGFYPSDIAVEWESNGQPENNYKTTPPVLDSDGSFFLYSKLTVDKSRWQQGNVFSCSVMHEALHNHYTQKSLSLSPGKGGGGSGGGGSDIQMTQSPSSLSASVGDRVTITCRPTENIYSYLAWYQQKPGKAPKLLIYFARTLAEGVPSRFSGSGSGTDFTLTISSLQPEDFATYYCQHHYGTPWTFGGGTKVEIKGGGGSGGGGSGGGGSGGGGSQVQLVQSGAEVKKPGASVKVSCKASGYTFTTYWMHWVRQAPGQGLEWMGVIDPSDSDTTYNQKFKGRVTMTRDTSTSTVYMELSSLRSEDTAVYYCTRSLDGYYDYWGQGTLVTVSS light: DIQMTQSPSSLSASVGDRVTITCRTSENIYSYLAWYQQKPGKAPKFLVYNAKTLAEGVPSRFSGSGSGTDFTLTISSLQPEDFATYYCQHYYGPPTWTFGQGTKVEIKRTVAAPSVFIFPPSDEQLKSGTASVVCLLNNFYPREAKVQWKVDNALQSGNSQESVTEQDSKDSTYSLSSTLTLSKADYEKHKVYACEVTHQGLSSPVTKSFNRGEC	0.0129	0.031	< 47.2	< 1e-05	212000	0.144	1.51	0.000487	323000	0.299	0.136
BSI-502-003 (bispecific antibody, human IgG1, kappa, hu1C5F12E9-V8 IgG with an anti-IL4R scFv (huC2C1A1A1-V15, VH-VL) at the N-terminus of the heavy chain; AQQ and YTE already stand in the entry) heavy: EVQLVESGGGLVQPGGSLRLSCAASGFTFSTYGMSWVRQAPGKGLVWVATINSNGGSTSYPDSVKGRFTISRDNAKNTLYLQMNSLRAEDTAVYYCARFFRFRNAMDYWGQGTLVTVSSGGGGSGGGGSGGGGSGGGGSDIQMTQSPSSLSASVGDRVTITCRTSENIYSYLAWYQQKPGKAPKFLVYNAKTLAEGVPSRFSGSGSGTDFTLTISSLQPEDFATYYCQHYYGPPTWTFGQGTKVEIKGGGGSGGGGSQVQLVQSGAEVKKPGASVKVSCKASGYTFTTYWMHWVRQAPGQGLEWMGVIDPSDSDTTYNQKFKGRVTMTRDTSTSTVYMELSSLRSEDTAVYYCTRSLDGYYDYWGQGTLVTVSSASTKGPSVFPLAPSSKSTSGGTAALGCLVKDYFPEPVTVSWNSGALTSGVHTFPAVLQSSGLYSLSSVVTVPSSSLGTQTYICNVNHKPSNTKVDKKVEPKSCDKTHTCPPCPAPEAQGGPSVFLFPPKPKDTLYITREPEVTCVVVDVSHEDPEVKFNWYVDGVEVHNAKTKPREEQYNSTYRVVSVLTVLHQDWLNGKEYKCQVSNKALPAPIEKTISKAKGQPREPQVYTLPPSRDELTKNQVSLTCLVKGFYPSDIAVEWESNGQPENNYKTTPPVLDSDGSFFLYSKLTVDKSRWQQGNVFSCSVMHEALHNHYTQKSLSLSPG light: DIQMTQSPSSLSASVGDRVTITCRPTENIYSYLAWYQQKPGKAPKLLIYFARTLAEGVPSRFSGSGSGTDFTLTISSLQPEDFATYYCQHHYGTPWTFGGGTKVEIKRTVAAPSVFIFPPSDEQLKSGTASVVCLLNNFYPREAKVQWKVDNALQSGNSQESVTEQDSKDSTYSLSSTLTLSKADYEKHKVYACEVTHQGLSSPVTKSFNRGEC	0.0221	0.0306	0.317	1.82e-07	574000	0.204	2.43	0.000534	220000	0.229	0.0491
BSI-502-004 (bispecific antibody, human IgG1, kappa, hu1C5F12E9-V8 IgG with an anti-IL4R scFv (VL-VH) at the N-terminus of the heavy chain; AQQ and YTE already stand in the entry) heavy: DIQMTQSPSSLSASVGDRVTITCRTSENIYSYLAWYQQKPGKAPKFLVYNAKTLAEGVPSRFSGSGSGTDFTLTISSLQPEDFATYYCQHYYGPPTWTFGQGTKVEIKGGGGSGGGGSGGGGSGGGGSEVQLVESGGGLVQPGGSLRLSCAASGFTFSTYGMSWVRQAPGKGLVWVATINSNGGSTSYPDSVKGRFTISRDNAKNTLYLQMNSLRAEDTAVYYCARFFRFRNAMDYWGQGTLVTVSSGGGGSGGGGSQVQLVQSGAEVKKPGASVKVSCKASGYTFTTYWMHWVRQAPGQGLEWMGVIDPSDSDTTYNQKFKGRVTMTRDTSTSTVYMELSSLRSEDTAVYYCTRSLDGYYDYWGQGTLVTVSSASTKGPSVFPLAPSSKSTSGGTAALGCLVKDYFPEPVTVSWNSGALTSGVHTFPAVLQSSGLYSLSSVVTVPSSSLGTQTYICNVNHKPSNTKVDKKVEPKSCDKTHTCPPCPAPEAQGGPSVFLFPPKPKDTLYITREPEVTCVVVDVSHEDPEVKFNWYVDGVEVHNAKTKPREEQYNSTYRVVSVLTVLHQDWLNGKEYKCQVSNKALPAPIEKTISKAKGQPREPQVYTLPPSRDELTKNQVSLTCLVKGFYPSDIAVEWESNGQPENNYKTTPPVLDSDGSFFLYSKLTVDKSRWQQGNVFSCSVMHEALHNHYTQKSLSLSPG light: DIQMTQSPSSLSASVGDRVTITCRPTENIYSYLAWYQQKPGKAPKLLIYFARTLAEGVPSRFSGSGSGTDFTLTISSLQPEDFATYYCQHHYGTPWTFGGGTKVEIKRTVAAPSVFIFPPSDEQLKSGTASVVCLLNNFYPREAKVQWKVDNALQSGNSQESVTEQDSKDSTYSLSSTLTLSKADYEKHKVYACEVTHQGLSSPVTKSFNRGEC	0.0318	0.0276	3.42	1.71e-06	499000	0.168	2.43	0.000453	186000		0.0652
